PMC11408864

Key:
[1] = molecular target: TDP43 low complexity domain (TDP43-LCD) condensates (UniProt Q13148); assay: co-sedimentation; TDP43-LCD condensates (50 μM) mixed with spin-labeled Httex1(Q46)-35R1 monomers (pre-filtered, 100 kD) or fibrils (sonicated, unbundled), 20 μM starting concentration; 123,000g at 4 °C; Httex1 in pellet and supernatant quantified by EPR
[2] = molecular target: TDP43 low complexity domain (TDP43-LCD) condensates (UniProt Q13148)
[3] = molecular target: TDP43-LCD condensates, 2% Alexa Fluor 488 labeled (UniProt Q13148)

Row | Substance | concentration of Httex1(Q46) in the pellet [1] | t1/2 of ThT fluorescence of 50 μM TDP43-LCD with 5 μM and 20 μM Httex1(Q46) fibrils (∼4 h and ∼1.5 h; ∼7 h without fibrils) [2] | percent of TDP43-LCD condensates irregularly shaped after 4 h of co-incubation with Httex1(Q46) fibrils (∼10% without fibrils), fluorescence microscopy [3]
1 | Httex1(Q46)-35R1 monomer (domain or fragment) | < 0.3 µM | – | –
2 | Httex1(Q46) fibrils, Alexa Fluor 594 labeled (domain or fragment) | – | 4 h | 60%
